B1: mouse ZNRF3 ectodomain (mZNRF3_(ecto)) (domain or fragment, UniProt Q5SSZ7 53-216, looked up)
chain: KETAFVEVVLFESSPSGDYTTHTTGLTGRFSRAGAMLSAEGEIVQMHPLGLCNNNDEEDLYEYGWVGVVKLEQPELDPKPCLTVLGKAKRAVQRGATAVIFDVSENPEAIDQLNQGSEDPLKRPVVYVKGADAIKLMNIVNKQKVARARIQHLPPRQPTEYFDM
notes: mouse ZNRF3 ectodomain; chain C of PDB 4C99 was the search model; source: produced as described (Zebisch et al., 2013); large scale mammalian expression, purified
B2: mouse R-spondin 2 Furin tandem repeat fragment (mRspo2_(Fu1-Fu2), I39-G144) (domain or fragment)
chain: ETGICKGCLSCSKDNGCSRCQQKLFFFLRREGMRQYGECLHSCPSGYYGHRAPDMNRCARCRIENCDSCFSKDFCTKCKVGFYLHRGRCFDECPDGFAPLDETMECVEGT
notes: residues left by the vector after removal of the signal peptide; mouse R-spondin 2, Fu1-Fu2, I39-G144; printed ends ICKGCL...MECVEG; vector residue before the His10 tag; not shown: His10, C-terminal, kept
B3: human LGR5 ectodomain variant (hLGR5_(ecto)), R32-S543 with the loop A488-H537 replaced by an NGNNGD linker (domain or fragment)
chain: ETGRGCPTHCHCEPDGRMLLRVDCSDLGLSELPSNLSVFTSYLDLSMNNISQLLPNPLPSLRFLEELRLAGNALTYIPKGAFTGLYSLKVLMLQNNQLRHVPTEALQNLRSLQSLRLDANHISYVPPSCFSGLHSLRHLWLDDNALTEIPVQAFRSLSALQAMTLALNKIHHIPDYAFGNLSSLVVLHLHNNRIHSLGKKCFDGLHSLETLDLNYNNLDEFPTAIRTLSNLKELGFHSNNIRSIPEKAFVGNPSLITIHFYDNPIQFVGRSAFQHLPELRTLTLNGASQITEFPDLTGTANLESLTLTGAQISSLPQTVCNQLPNLQVLDLSYNLLEDLPSFSVCQKLQKIDLRHNEIYEIKVDTFQQLLSLRSLNLAWNKIAIIHPNAFSTLPSLIKLDLSSNLLSSFPITGLHGLTHLKLTGNHALQSLISSENFPELKVIEMPYAYQCCAFGVCENNGNNGDSVQCSPSGT
notes: residues left by the vector pHLsec after removal of the signal peptide; human LGR5 ectodomain, R32 up to the residue before the replaced loop A488-H537; printed ends RGCPTH...FGVCEN; linker that replaces A488-H537; human LGR5 after the replaced loop; vector residues before the His10 tag; Cloned into pHLsec H10; not shown: His10, C-terminal, kept

What was measured:
[1] = target: the molecule itself; test: crystal structure; approximately stoichiometric amounts of the hLGR5_(ecto)–mRspo2_(Fu1-Fu2) complex and mZNRF3_(ecto) mixed in 10 mM Tris/HCl pH 9.0, 1000 mM NaCl, 1.3 mg/ml; crystals in 100 mM ammonium acetate, 600 mM NaCl, 50 mM MES pH 6.0, 5 mM MgSO4; 4.8 Å, anisotropic; 2:2:2 complex generated by crystallographic symmetry
[2] = target: T1, hLGR5_(ecto)–mRspo2_(Fu1-Fu2) complex, formed beforehand by coexpression (human | mouse, UniProt O75473 32-487; Q8BFU0 39-144); test: as above; settings: both partners purified
T1 construct: as the chain of m1: vector residues; as the chain of m1: human LGR5 ectodomain, R32 up to the residue before the replaced loop A488-H537; printed ends RGCPTH...FGVCEN; as the chain of m1: linker that replaces A488-H537; as the chain of m1: human LGR5 after the replaced loop; as the chain of m1: vector residues before the His10 tag; as the chain of m2: vector residues; as the chain of m2: mouse …
T1 chain 1: B3 chain
T1 chain 2: B2 chain

[3] = target: B3; test: crystal structure; hLGR5_(ecto)–mRspo2_(Fu1-Fu2) complex from coexpression, 5.9 mg/ml; sitting drop; 25% (w/v) PEG 3350, 200 mM lithium sulphate, 100 mM bis-Tris pH 5.5; 2.2 Å; two copies of the complex in the asymmetric unit; settings: both partners purified
[4] = target: the molecule itself; test: as above
[5] = target: B2; test: as above; settings: both partners purified

B1
stoichiometry N [1]: 2
stoichiometry N [2]: 1

B2
stoichiometry N [3]: 1

B3
stoichiometry N [4]: 2
binding result [5]: binds
